The text below walks through data of article PMC6179184, “Interaction of the Warsaw breakage syndrome DNA helicase DDX11 with the replication fork-protection factor Timeless promotes sister chromatid cohesion” (PLoS Genetics, 2018).

The target in test [1] is T1, recombinant human Flag-Timeless (human, UniProt Q9UNS1 1-1208).
T1 construct: Timeless, human, component of the replication fork-protection complex; also called Flag-tagged Timeless; source: insect cells infected with a recombinant baculovirus (Sf9), purified
T1 sequence (looked up): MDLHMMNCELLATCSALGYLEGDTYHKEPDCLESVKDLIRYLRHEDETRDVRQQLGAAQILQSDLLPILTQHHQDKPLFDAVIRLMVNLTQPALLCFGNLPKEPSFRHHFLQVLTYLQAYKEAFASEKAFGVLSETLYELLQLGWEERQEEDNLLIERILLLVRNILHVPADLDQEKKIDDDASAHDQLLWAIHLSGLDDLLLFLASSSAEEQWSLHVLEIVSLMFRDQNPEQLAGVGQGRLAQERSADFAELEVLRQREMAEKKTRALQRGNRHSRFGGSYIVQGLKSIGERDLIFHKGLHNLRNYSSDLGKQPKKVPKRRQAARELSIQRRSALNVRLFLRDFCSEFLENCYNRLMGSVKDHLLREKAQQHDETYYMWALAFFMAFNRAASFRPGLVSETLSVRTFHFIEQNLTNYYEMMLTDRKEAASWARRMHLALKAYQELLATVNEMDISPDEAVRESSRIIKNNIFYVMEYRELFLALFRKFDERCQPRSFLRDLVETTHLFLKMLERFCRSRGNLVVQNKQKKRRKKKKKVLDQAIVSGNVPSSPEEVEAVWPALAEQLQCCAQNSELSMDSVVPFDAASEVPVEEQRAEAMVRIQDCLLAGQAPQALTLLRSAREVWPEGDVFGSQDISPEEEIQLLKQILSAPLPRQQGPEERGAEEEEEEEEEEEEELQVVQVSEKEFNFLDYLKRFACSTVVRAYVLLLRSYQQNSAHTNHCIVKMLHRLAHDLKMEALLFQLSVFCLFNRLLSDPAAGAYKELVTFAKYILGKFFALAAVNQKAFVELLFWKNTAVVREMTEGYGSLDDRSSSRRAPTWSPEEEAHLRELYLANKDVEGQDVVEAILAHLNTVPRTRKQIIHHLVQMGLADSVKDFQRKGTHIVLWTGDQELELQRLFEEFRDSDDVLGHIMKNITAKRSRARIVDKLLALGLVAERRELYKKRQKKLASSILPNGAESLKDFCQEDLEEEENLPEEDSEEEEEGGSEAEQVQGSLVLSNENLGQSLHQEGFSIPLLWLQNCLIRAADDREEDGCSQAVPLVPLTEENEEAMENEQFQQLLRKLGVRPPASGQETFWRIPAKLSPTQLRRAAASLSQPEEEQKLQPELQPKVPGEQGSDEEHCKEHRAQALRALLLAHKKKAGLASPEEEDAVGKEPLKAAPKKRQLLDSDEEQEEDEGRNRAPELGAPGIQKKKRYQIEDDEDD
As to the kind of experiment: peptide or protein array; PEPperCHIP microarrays of 15-residue DDX11 peptides on glass slides (tiling array, 13-residue overlap; full substitution scan of peptide # 32); Flag-Timeless at 50 ug/mL in PBS, 0.05% Tween 20, 1% BSA for 16 hr; detected with Cy3-labelled anti-Flag antibody; control array without Flag-Timeless. Conditions: both partners purified.

In test [2] the target is T1, recombinant human Flag-Timeless. In words: pull-down; mixtures of purified recombinant proteins (Timeless 0.8 ug or cohesin 1 ug, DDX11 0.5 ug, 200 uL) with anti-DDX11 antibody on Protein A beads; 25 mM Tris-HCl pH 7.5, 150 mM NaCl, 2 mM MgCl2, 1 mM DTT, 5% glycerol, 2 hr at 4 C; washes with 300 mM NaCl, 0.25% Triton X-100; immuno-blot. Conditions: both partners purified.

B1: DDX11 Peptide # 32 (peptide)
peptide: EQLESGEEELVLAEY
notes: 15-residue peptide of human DDX11 (906-residue protein), in Region T (65-225); its two C-terminal residues are Glu201 and Tyr202 of full-length DDX11; source: synthetic peptide, printed on a PEPperCHIP microarray (PEPperPRINT)
Regarding B1, in test [1], the binding result was “binds”.

B2: DDX11-3xFlag wild type (enzyme, human, UniProt Q96FC9-2 1-906, looked up)
chain: MANETQKVGAIHFPFPFTPYSIQEDFMAELYRVLEAGKIGIFESPTGTGKSLSLICGALSWLRDFEQKKREEEARLLETGTGPLHDEKDESLCLSSSCEGAAGTPRPAGEPAWVTQFVQKKEERDLVDRLKAEQARRKQREERLQQLQHRVQLKYAAKRLRQEEEERENLLRLSREMLETGPEAERLEQLESGEEELVLAEYESDEEKKVASRVDEDEDDLEEEHITKIYYCSRTHSQLAQFVHEVKKSPFGKDVRLVSLGSRQNLCVNEDVKSLGSVQLINDRCVDMQRSRHEKKKGAEEEKPKRRRQEKQAACPFYNHEQMGLLRDEALAEVKDMEQLLALGKEARACPYYGSRLAIPAAQLVVLPYQMLLHAATRQAAGIRLQDQVVIIDEAHNLIDTITGMHSVEVSGSQLCQAHSQLLQYVERYGKRLKAKNLMYLKQILYLLEKFVAVLGGNIKQNPNTQSLSQTGTELKTINDFLFQSQIDNINLFKVQRYCEKSMISRKLFGFTERYGAVFSSREQPKLAGFQQFLQSLQPRTTEALAAPADESQASTLRPASPLMHIQGFLAALTTANQDGRVILSRQGSLSQSTLKFLLLNPAVHFAQVVKECRAVVIAGGTMQPVSDFRQQLLACAGVEAERVVEFSCGHVIPPDNILPLVICSGISNQPLEFTFQKRELPQMMDEVGRILCNLCGVVPGGVVCFFPSYEYLRQVHAHWEKGGLLGRLAARKKIFQEPKSAHQVEQVLLAYSRCIQACGQERGQVTGALLLSVVGGKMSEGINFSDNLGRCVVMVGMPFPNIRSAELQEKMAYLDQTLPRAPGQAPPGKALVENLCMKAVNQSIGRAIRHQKDFASVVLLDQRYARPPVLAKLPAWIRARVEVKATFGPAIAAVQKFHREKSASS
notes: DDX11 (ChlR1), human, full-length protein of 906 residues (1-906); also called Flag-tagged wild type (WT) DDX11; ChlR1; source: HEK 293T, transiently transfected (pcDNA 3.0); purified, and in whole cell extract; not shown: 3xFlag, C-terminal, kept
For the molecule B2, the binding result in test [2] was “binds”.
